This data set deals with the molecule itself. Kind of data set: gel filtration (self-association).

B1: human ssDNA binding protein 1 (hSSB1) (other)
chain: MTTETFVKDIKPGLKNLNLIFIVLETGRVTKTKDGHEVRTCKVADKTGSINISVWDDVGNLIQPGDIIRLTKGYASVFKGCLTLYTGRGGDLQKIGEFCMVYSEVPNFSEPNPEYSTQQAPNKAVQNDSNPSASQPTTGPSAASPASENQNGNGLSAPPGPGGGPHPPHTPSHPPSTRITRSQPNHTPAGPPGPSSNPVSNGKETRRSSKR
notes: also called human SSB1
For B1, the binding result is “binds”.

These data come from US20100297623A1 (COUNCIL OF THE QUEENSLAND INSTITUTE OF MEDICAL RESEARCH, published 2010).
